Data on five molecules can be found in publication PMC6071530, “The S100A4 Protein Signals through the ErbB4 Receptor to Promote Neuronal Survival” (Theranostics, 2018).

No end group written: not given here.

B3: Recombinant human S100A4 (natural protein)
chain: not shown
notes: S100A4 protein, human, recombinant

Holding throughout (details): both partners purified
The target in test [1] is B3. The test can be described thus: SPR; BIAcore 2000; 2000 RU of recombinant human S100A4 immobilized covalently on a CM4 chip; soluble AR or NRG as analyte. In general terms: SPR reads the build-up and loss of mass on a sensor chip optically.
In test [2] the target is T1, human extracellular ErbB3/Fc chimera (human, UniProt P21860 20-643).
T1 construct: ErbB3, human, extracellular part; also called Fc-conjugated ErbB3; source: bought: R&D Systems (carrier free)
T1 sequence (P21860 20-643, change not shown): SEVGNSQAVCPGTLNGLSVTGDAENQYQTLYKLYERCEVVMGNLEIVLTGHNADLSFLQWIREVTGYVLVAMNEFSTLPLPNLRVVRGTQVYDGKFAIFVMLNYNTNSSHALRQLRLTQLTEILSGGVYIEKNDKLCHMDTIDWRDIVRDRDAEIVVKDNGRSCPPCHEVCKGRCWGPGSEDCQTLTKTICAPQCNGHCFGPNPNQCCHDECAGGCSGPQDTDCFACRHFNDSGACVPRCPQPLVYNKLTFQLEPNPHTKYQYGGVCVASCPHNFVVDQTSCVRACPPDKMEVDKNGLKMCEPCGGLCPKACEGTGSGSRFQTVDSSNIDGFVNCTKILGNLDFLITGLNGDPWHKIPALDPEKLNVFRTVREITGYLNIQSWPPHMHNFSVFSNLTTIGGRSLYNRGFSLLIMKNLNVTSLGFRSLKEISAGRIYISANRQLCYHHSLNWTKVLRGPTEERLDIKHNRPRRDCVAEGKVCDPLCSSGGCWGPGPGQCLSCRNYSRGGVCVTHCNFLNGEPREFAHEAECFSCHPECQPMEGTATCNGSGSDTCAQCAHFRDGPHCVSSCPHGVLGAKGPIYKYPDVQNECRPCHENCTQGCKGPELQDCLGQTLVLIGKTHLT
Put plainly: SPR; BIAcore 2000; 2000 RU of ErbB/Fc chimera immobilized covalently on a CM4 chip; S100A4 or peptides as analyte; apparent affinities calculated from binding kinetics.

For test [3], the target named is T2, human extracellular ErbB1/Fc chimera (human, UniProt P00533 25-645).
T2 construct: ErbB1 (EGFR), human, extracellular part; also called EGFR; EGFR-Fc; source: bought: R&D Systems (carrier free)
The test is described as above.

In test [4] the target is T3, human extracellular ErbB4/Fc chimera (human, UniProt Q15303 26-651).
T3 construct: ErbB4, human, extracellular part; also called Fc-conjugated ErbB4; source: bought: R&D Systems (carrier free)
T3 sequence (looked up): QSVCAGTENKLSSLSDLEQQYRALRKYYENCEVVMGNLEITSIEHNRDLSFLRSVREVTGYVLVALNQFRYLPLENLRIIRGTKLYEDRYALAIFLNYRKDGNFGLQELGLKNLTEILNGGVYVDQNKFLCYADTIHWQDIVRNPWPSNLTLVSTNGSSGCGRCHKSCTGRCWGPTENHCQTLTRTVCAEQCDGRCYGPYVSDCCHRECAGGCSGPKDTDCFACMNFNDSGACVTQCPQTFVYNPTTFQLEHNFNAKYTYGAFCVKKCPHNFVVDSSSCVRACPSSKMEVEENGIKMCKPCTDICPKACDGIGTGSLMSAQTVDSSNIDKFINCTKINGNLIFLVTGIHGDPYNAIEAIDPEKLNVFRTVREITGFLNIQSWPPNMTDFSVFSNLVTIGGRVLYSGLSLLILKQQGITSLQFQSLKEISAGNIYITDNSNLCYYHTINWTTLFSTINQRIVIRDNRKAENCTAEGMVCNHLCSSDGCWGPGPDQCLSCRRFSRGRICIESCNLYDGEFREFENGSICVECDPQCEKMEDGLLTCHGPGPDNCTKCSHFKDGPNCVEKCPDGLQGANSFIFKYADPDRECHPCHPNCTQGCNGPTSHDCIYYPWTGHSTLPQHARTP
The description is as above.

Test [5] has as its target T1, human extracellular ErbB3/Fc chimera. Put plainly: cross-linking; label transfer in solution: 100 nM Sulfo-SBED-conjugated protein with 50 nM Fc fusion or mouse IgG, 30 min in the dark at RT in TBS-Ca2+, UV 302 nm 5 min, precipitated with Protein A Dynabeads, reduced, biotin detected with streptavidin-HRP.
Test [6] addresses T2, human extracellular ErbB1/Fc chimera. Described as above.
The target in test [7] is T3, human extracellular ErbB4/Fc chimera. The test is described as above.

B1: amphiregulin (ligand, UniProt P15514 101-187, looked up)
chain: SVRVEQVVKPPQNKTESENTSDKPKRKKKGGKNGKNRRNRKKKNPCNAEFQNFCIHGECKYIEHLEAVTCKCQQEYFGERCGEKSMK
notes: amphiregulin (AR), soluble, ligand of EGFR; also called AR; source: bought: R&D Systems (carrier free)
Take B1: the Kd in test [1] is 71.3 ± 12.3 nM.

B2: H3 peptide (S100A4-derived), tetramer on a lysine backbone (peptide)
peptide: KELLTRELPSFLGKRT
modifications: also: tetramer: four monomers coupled to a lysine backbone
notes: motif of S100A4 with high homology within the S100 family; Dendrimeric tetramer: four copies of the peptide on a lysine backbone; source: synthetic peptide (Schafer-N, Denmark)
As to B2, the results for the Kd in test [2], in test [3] and in test [4] were 203 ± 46.7 nM, 107 ± 23.1 nM and 199 ± 53.1 nM, respectively.
For B3, the figures for the Kd in test [2], in test [3] and in test [4] were 58 ± 30 nM, 21.4 ± 5.5 nM and 66 ± 26.9 nM, respectively.

B4: H6 peptide (S100A4-derived), tetramer on a lysine backbone (peptide)
peptide: NEFFEGFPDKQPRKK
modifications: also: tetramer: four monomers coupled to a lysine backbone
notes: low-homology ('unique') motif in the C-terminal of S100A4; Dendrimeric tetramer: four copies of the peptide on a lysine backbone; source: synthetic peptide (Schafer-N, Denmark)
As for B4, the Kd in test [2] is 62.3 ± 18.8 nM; in test [3], 802 ± 114 nM; in test [4] it was 217 ± 19.9 nM.

B5: Sulfo-SBED-S100A4 (natural protein)
chain: not shown
modifications: derivatized with sulfo-SBED (biotin label-transfer cross-linker); sites not stated
notes: S100A4 protein, human, recombinant; The same protein as m1, carrying the sulfo-SBED label for the label transfer cross-linking; also called sulfo-SBED-conjugated S100A4
As to B5, the binding result in test [5], in test [6] and in test [7] was “binds” in each case.
